# Results taken from the supplement of paper PMC11780869.
# System: Bacillus subtilis
# Test: cleaved RNA product abundance (RNA/gDNA barcode ratio) relative to median wild-type variant (ratio to wild type); higher = more accumulation of the downstream cleavage product
# Conditions: experiment (reporter, strain, medium): exp 8a: truncated aprE reporter, strain BJT201 with 2% xylose (RNase J1 expressed); cleavage site: glnRA (positions -5 to +31 mutated)
# How it was run: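 The B. subtilis chromosome carried reporter mRNAs, truncated aprE or tetM, containing barcoded RNase Y cleavage-site windows mutagenized using oligos with a 9% error rate. After growth in LB at 37°C from OD600 0.0003 to 0.3, cleaved RNA was gel-selected, reverse transcribed and barcode-sequenced next to genomic DNA barcodes, with UMI collapsing. Each construct's RNA:gDNA barcode ratio was scaled to the median construct with the unmutated site. That scaled ratio is reported as cleaved product abundance.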
row,Sequence,cleaved RNA product abundance
1,CGACATGTCCCGCTTCTTTCATTAATCCGCGAGCAACTGTTTTGCTATATACATTTACCTTTTAAGAGGAGGAAT,0.318
2,CGACATGTCCCGCTTCTTTCATTAATCCGGTAACAACTGTTTTGCTATATACATTTACCTTTTAAGAGGAGGAAT,0.34
3,CGACATGTCCCGCTTCTTTCATTAATCCGGTAGCAACTGTTATGCTATATACATTTACCTTTTAAGAGGAGGAAT,1.02
4,CGACATGTCCCGCTTCTTTCATTAATCCGGTAGCAACTGTTTTGATATATACATTTACCTTTTAAGAGGAGGAAT,0.316
5,CGACATGTCCCGCTTCTTTCATTAATCCGGTAGCAACTGTTTTGCAATATACATTTACCTTTTAAGAGGAGGAAT,0.533
6,CGACATGTCCCGCTTCTTTCATTAATCCGGTAGCAACTGTTTTGCTAGATACATTTACCTTTTAAGAGGAGGAAT,0.545
7,CGACATGTCCCGCTTCTTTCATTAATCCGGTAGCAACTGTTTTGCTATATACATTTACCTTTTAAGAGGAGGAAT,0.945
8,CGACATGTCCCGCTTCTTTCATTAATCCGGTATCAACTGTTTTGCTATATACATTTACCTTTTAAGAGGAGGAAT,0.375
9,CGACATGTCCCGCTTCTTTCATTAATCCGTAAACAACTCTTTTGCTATATACATTTACCTTTTAAGAGGAGGAAT,0.202
10,CGACATGTCCCGCTTCTTTCATTAATCCGTAAACAACTGTTTTGCTATATACATTTACCTTTTAAGAGGAGGAAT,0.159
11,CGACATGTCCCGCTTCTTTCATTAATCCGTAACCAACTGTTTTGCTATATACATTTACCTTTTAAGAGGAGGAAT,0.187
12,CGACATGTCCCGCTTCTTTCATTAATCCGTAAGCAACAGTTTTGCTATATACATTTACCTTTTAAGAGGAGGAAT,0.348
13,CGACATGTCCCGCTTCTTTCATTAATCCGTAAGCAACTGATTTGCTATATACATTTACCTTTTAAGAGGAGGAAT,0.25
14,CGACATGTCCCGCTTCTTTCATTAATCCGTAAGCAACTGTATTGCTATATACATTTACCTTTTAAGAGGAGGAAT,0.367
15,CGACATGTCCCGCTTCTTTCATTAATCCGTAAGCAACTGTTTCGCTATATACATTTACCTTTTAAGAGGAGGAAT,0.145
16,CGACATGTCCCGCTTCTTTCATTAATCCGTAAGCAACTGTTTGGCTATATACATTTACCTTTTAAGAGGAGGAAT,0.371
17,CGACATGTCCCGCTTCTTTCATTAATCCGTAAGCAACTGTTTTACTATATACATTTACCTTTTAAGAGGAGGAAT,0.583
18,CGACATGTCCCGCTTCTTTCATTAATCCGTAAGCAACTGTTTTCCTATATACATTTACCTTTTAAGAGGAGGAAT,0.354
19,CGACATGTCCCGCTTCTTTCATTAATCCGTAAGCAACTGTTTTGATATATACATTTACCTTTTAAGAGGAGGAAT,0.329
20,CGACATGTCCCGCTTCTTTCATTAATCCGTAAGCAACTGTTTTGCCATATACATTTACCTTTTAAGAGGAGGAAT,0.295
21,CGACATGTCCCGCTTCTTTCATTAATCCGTAAGCAACTGTTTTGCTAAATACATTTACCTTTTAAGAGGAGGAAT,0.36
22,CGACATGTCCCGCTTCTTTCATTAATCCGTAAGCAACTGTTTTGCTACATACATTTACCTTTTAAGAGGAGGAAT,0.38
23,CGACATGTCCCGCTTCTTTCATTAATCCGTAAGCAACTGTTTTGCTATATAAATTTACCTTTTAAGAGGAGGAAT,0.474
24,CGACATGTCCCGCTTCTTTCATTAATCCGTAAGCAACTGTTTTGCTATATACAATTACCTTTTAAGAGGAGGAAT,0.478
25,CGACATGTCCCGCTTCTTTCATTAATCCGTAAGCAACTGTTTTGCTATATACATATACCTTTTAAGAGGAGGAAT,0.551

row,Sequence,cleaved RNA product abundance
1,CGACATGTCCCGCTTCTTTCATTAATCCGTAAGCAACTGTTTTGCTATATACATTAACCTTTTAAGAGGAGGAAT,0.756
2,CGACATGTCCCGCTTCTTTCATTAATCCGTAAGCAACTGTTTTGCTATATACATTTAACATTTAAGAGGAGGAAT,0.275
3,CGACATGTCCCGCTTCTTTCATTAATCCGTAAGCAACTGTTTTGCTATATACATTTAACTTTTAAGAGGAGGAAT,0.79
4,CGACATGTCCCGCTTCTTTCATTAATCCGTAAGCAACTGTTTTGCTATATACATTTACATTTTAAGAGGAGGAAT,0.531
5,CGACATGTCCCGCTTCTTTCATTAATCCGTAAGCAACTGTTTTGCTATATACATTTACCATTTAAGAGGAGGAAT,0.381
6,CGACATGTCCCGCTTCTTTCATTAATCCGTAAGCAACTGTTTTGCTATATACATTTACCTTTTAAGAGGAGGAAT,0.434
7,CGACATGTCCCGCTTCTTTCATTAATCCGTAAGCAACTGTTTTGCTATATACATTTACGTTTTAAGAGGAGGAAT,0.475
8,CGACATGTCCCGCTTCTTTCATTAATCCGTAAGCAACTGTTTTGCTATATACATTTACTTTTTAAGAGGAGGAAT,0.641
9,CGACATGTCCCGCTTCTTTCATTAATCCGTAAGCAACTGTTTTGCTATATACATTTATCTTTTAAGAGGAGGAAT,0.536
10,CGACATGTCCCGCTTCTTTCATTAATCCGTAAGCAACTGTTTTGCTATATACATTTCCCTTTTAAGAGGAGGAAT,0.212
11,CGACATGTCCCGCTTCTTTCATTAATCCGTAAGCAACTGTTTTGCTATATACCTTTACCTTTTAAGAGGAGGAAT,0.207
12,CGACATGTCCCGCTTCTTTCATTAATCCGTAAGCAACTGTTTTGCTATATACTTTTACCTTTTAAGAGGAGGAAT,0.307
13,CGACATGTCCCGCTTCTTTCATTAATCCGTAAGCAACTGTTTTGCTATATATATTTACCTTTTAAGAGGAGGAAT,0.449
14,CGACATGTCCCGCTTCTTTCATTAATCCGTAAGCAACTGTTTTGCTATGTACATTTACCTTTTAAGAGGAGGAAT,0.0895
15,CGACATGTCCCGCTTCTTTCATTAATCCGTAAGCAACTGTTTTGGTATATACATTTACCTTTTAAGAGGAGGAAT,0.312
16,CGACATGTCCCGCTTCTTTCATTAATCCGTAAGCAACTGTTTTGTTATATACATTTACCTTTTAAGAGGAGGAAT,0.391
17,CGACATGTCCCGCTTCTTTCATTAATCCGTAAGCAACTGTTTTTCTATATACATTTACCTTTTAAGAGGAGGAAT,0.508
18,CGACATGTCCCGCTTCTTTCATTAATCCGTAAGCAACTTTTTTGCTATATACATTTACCTTTTAAGAGGAGGAAT,0.82
19,CGACATGTCCCGCTTCTTTCATTAATCCGTAAGCAATTGTTTTGCTATATACATTTACCTTTTAAGAGGAGGAAT,0.524
20,CGACATGTCCCGCTTCTTTCATTAATCCGTAAGCATCTGTTTTGCTATATACATTTACCTTTTAAGAGGAGGAAT,0.322
21,CGACATGTCCCGCTTCTTTCATTAATCCGTAAGCTACTGTTTTGCTATATACATTTACCTTTTAAGAGGAGGAAT,0.123
22,CGACATGTCCCGCTTCTTTCATTAATCCGTAAGGAACTGTTTTGCTATATACATTTACCTTTTAAGAGGAGGAAT,0.32
23,CGACATGTCCCGCTTCTTTCATTAATCCGTAATCAACTGTTTTGCTATATACATTTACCTTTTAAGAGGAGGAAT,0.265
24,CGACATGTCCCGCTTCTTTCATTAATCCGTCAACAACTGTTTTGCTATATACATTTACCTTTTAAGAGGAGGAAT,0.384
25,CGACATGTCCCGCTTCTTTCATTAATCCGTCAGAAACTGTTTTGCTATATACATTTACCTTTTAAGAGGAGGAAT,0.185
